Experimental data as given in the supplement of paper PMC7877785.
± gives the uncertainty stated by the source.

Test: self-splicing fitness, log relative to wild type (ln ratio); higher = more splicing; Tetrahymena group I intron in knt gene, E. coli kanamycin selection, DiMSum; sequences stand for … in CUCUCU…GGAGGGAAAAGUUAUCAGGCAUGCACCUGGUAGCUAGUCUUUAAACCAAUAGAUUGCAUCGGUUUAAAAGGCAAGACCGUCAAAUUGCGGGAAAGGGGUCAACAGCCGUUCAGUACCAAGUCUCAGGGGAAACUUUGAGAUGGCCUUGCAAAGGGUAUGGUAAUAAGCUGACGGACAUGGUCCUAACCACGCAGCCAAGUCCUAAGUCAACAGAUCUUCUGUUGAUAUGGAUGCAGUUCACAGACUAAAUGUCGGUCGGGGAAGAUGUAUUCUUCUCAUAAGAUAUAGUCGGACCUCUCCUUAAUGGGAGCUAGCGGAUGAAGUGAUGCAACACUGGAGCCGCUGGGAACUAAUUUGUAUGCGAAAGUAUAUUGAUUAGUUUUGGAGUACUCGUGGUCG
Summary of the method: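 Colonies from six replicate transformations of E. coli BL21(DE3) were pooled and amplicon-sequenced on an Illumina HiSeq 2500. The library placed an intron with all eight P1ex-region nucleotides randomised inside the knt kanamycin-resistance gene on pET-22b(+), and cells grew overnight at 37°C or 30°C on LB agar with or without 25 μg/mL kanamycin (plus 100 μg/mL carbenicillin, 50 μM IPTG, 0.2% rhamnose). Fitness is the DiMSum error-weighted combination of wild-type-normalised replicate fold changes, kanamycin versus none.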

Sequence	self-splicing fitness (ln) (30 °C)	self-splicing fitness (ln) (37 °C)
AUCAAGCAAUAUUACGACGC	-0.837 ± 0.099	-0.402 ± 0.12
UAGCAGCAAUAUUACGGUGA	-0.912 ± 0.08	-0.0764 ± 0.096
CUACAGCAAUAUUACGCGAG	-2.9 ± 0.098	-1.74 ± 0.1
GAGGAGCAAUAUUACGGAGU		-2.57 ± 0.34
CCCAAGCAAUAUUACGGGAC	-4.01 ± 0.18	-2.67 ± 0.15
ACGAAGCAAUAUUACGUCCA	-0.408 ± 0.12	-0.457 ± 0.13
ACUGAGCAAUAUUACGCUUG	-3.28 ± 0.3	-2.75 ± 0.31
AUGUAGCAAUAUUACGUAUG	-3.84 ± 0.29	-3.16 ± 0.28
UUAAAGCAAUAUUACGAGCA	-0.0954 ± 0.082	0.177 ± 0.11
UUCCAGCAAUAUUACGGCCA	-1.08 ± 0.13	0.682 ± 0.16
UUCGAGCAAUAUUACGUCUA	-1.29 ± 0.15	-0.414 ± 0.13
AGGUAGCAAUAUUACGACCA	0.0772 ± 0.018	0.199 ± 0.038
AUAUAGCAAUAUUACGCCAU	-1.32 ± 0.18	-1.38 ± 0.21
AAAUAGCAAUAUUACGUAGC	-3.97 ± 0.33	-1.9 ± 0.31
CUAUAGCAAUAUUACGAUGC	-4.97 ± 0.38	-2.41 ± 0.2
CCGUAGCAAUAUUACGUGUC	-3.6 ± 0.29	-1.87 ± 0.32
CCCGAGCAAUAUUACGGCAA	-3.03 ± 0.35	-2.32 ± 0.22
AAACAGCAAUAUUACGUCUG	-2.28 ± 0.084	-1.17 ± 0.095
AAACAGCAAUAUUACGCAUA	-2 ± 0.096	-0.419 ± 0.073
CAGGAGCAAUAUUACGGGUA	-4.12 ± 0.42	-3.31 ± 0.35
UCCGAGCAAUAUUACGUCGA	-1.21 ± 0.16	-0.238 ± 0.13
CGGCAGCAAUAUUACGAGCU	-2.8 ± 0.17	-1.55 ± 0.14
GGAUAGCAAUAUUACGGUUA	-0.755 ± 0.2	0.0186 ± 0.17
UCGGAGCAAUAUUACGGAAA		-2.64 ± 0.36
CUACAGCAAUAUUACGCGCA	-3.72 ± 0.22	-2.12 ± 0.19

Sequence	self-splicing fitness (ln) (30 °C)	self-splicing fitness (ln) (37 °C)
CUCCAGCAAUAUUACGGUUG	-2.69 ± 0.097	-1.01 ± 0.12
CUGAAGCAAUAUUACGCGCU	-3.35 ± 0.29	
UUGUAGCAAUAUUACGGACC	-2.38 ± 0.25	-1.46 ± 0.34
CAGAAGCAAUAUUACGUCUC	-1.79 ± 0.07	-0.536 ± 0.084
CUAAAGCAAUAUUACGUUCU	-4.08 ± 0.24	-3.07 ± 0.26
AUAAAGCAAUAUUACGGCGA	0.447 ± 0.1	1.03 ± 0.14
UAUCAGCAAUAUUACGAUAU	-2.41 ± 0.11	-1.64 ± 0.13
CGUUAGCAAUAUUACGCACG	-1.99 ± 0.31	
UCGGAGCAAUAUUACGUUAG		-2.12 ± 0.22
CGGCAGCAAUAUUACGUGAC	-3.9 ± 0.13	-1.22 ± 0.1
CAAAAGCAAUAUUACGGGUG	-0.689 ± 0.046	-0.361 ± 0.076
UUCUAGCAAUAUUACGGUGU	-3.4 ± 0.32	-2.91 ± 0.37
CAAAAGCAAUAUUACGCCAA	-3.4 ± 0.36	-2.1 ± 0.24
AGUGAGCAAUAUUACGAUAC	-3.02 ± 0.22	-2.47 ± 0.34
GCUCAGCAAUAUUACGAAGG	-0.909 ± 0.073	-0.29 ± 0.1
UUAUAGCAAUAUUACGCGAG	-0.842 ± 0.11	-0.334 ± 0.12
ACAUAGCAAUAUUACGUCUC		-2.01 ± 0.25
CAAGAGCAAUAUUACGGGUC	-3.71 ± 0.21	-2.17 ± 0.17
GCGCAGCAAUAUUACGGACG	-2.17 ± 0.13	-0.91 ± 0.15
CACUAGCAAUAUUACGGGUU	-2.05 ± 0.076	-1.28 ± 0.095
UCAGAGCAAUAUUACGGGUA	-3.47 ± 0.27	-2.64 ± 0.31
AAAUAGCAAUAUUACGUGUA	-2.49 ± 0.091	-1.44 ± 0.09
CAGUAGCAAUAUUACGACAA	-1.98 ± 0.19	-1.62 ± 0.15
AAAAAGCAAUAUUACGCAAG	-1.78 ± 0.097	-0.583 ± 0.1
